Results on one protein are retold here after US6979530.

In this series the target is T1, Peptide conjugate 9 (DYE^2-Gly-Asp-Glu-Val-Asp-Gly-Ile-Lys-DYE^1).
T1 chain: GDEVDGIK

B1: purified caspase-3 (BD PharMingen) (protein)
chain: SGISLDNSYKMDYPEMGLCIIINNKNFHKSTGMTSRSGTDVDAANLRETFRNLKYEVRNKNDLTREEIVELMRDVSKEDHSKRSSFVCVLLSHGEEGIIFGTNGPVDLKKITNFFRGDRCRSLTGKPKLFIIQACRGTELDCGIETDSGVDDDMACHKIPVEADFLYAYSTAPGYYSWRNSKDGSWFIQSLCAMLKQYADKLEFMHILTRVNRKVATEFESFSFDATFHAKKQIPCIVSMLTKELYFYH
For B1, the “fluorescence excitation and emission spectra before and after adding purified caspase-3 (in vitro cleavage)” value is “When purified caspase-3 is added to 9, significant excitation fluorescence (FIG. 6) and significant emission fluorescence is detected (FIG. 7) from the donor dibenzorhodamine dye”; the “time course of donor dye fluorescence emission after mixing with caspase-3 (in vitro cleavage)” value is “Emission from the donor dye increased rapidly during the first 5 to 10 minutes and stabilized in about an hour, indicating rapid cleavage”.
